From patent US20120219551A1 (MacroGenics, published 2012)

T1: CD32B-G2Ag (human, UniProt P31994 43-217)
T1 construct: extracellular domain; Soluble dimeric protein as told for Section 7.7; also called FcγRIIB-Fc fusion protein; 2bFcagl; not shown: human IgG2 hinge-CH2-CH3 domain
T1 sequence (looked up): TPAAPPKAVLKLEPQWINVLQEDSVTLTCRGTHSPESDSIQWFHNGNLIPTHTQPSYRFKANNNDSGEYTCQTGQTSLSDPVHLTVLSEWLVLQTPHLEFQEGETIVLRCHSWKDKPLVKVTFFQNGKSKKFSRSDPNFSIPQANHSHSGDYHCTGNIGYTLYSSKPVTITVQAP

T2: CD32A-G2Ag (human, UniProt P12318 34-217)
T2 construct: extracellular domain; Soluble dimeric protein as told for Section 7.7 (there 131H); also called FcγRIIA-Fc fusion protein; 2aFcagl; not shown: human IgG2 hinge-CH2-CH3 domain
T2 sequence (looked up): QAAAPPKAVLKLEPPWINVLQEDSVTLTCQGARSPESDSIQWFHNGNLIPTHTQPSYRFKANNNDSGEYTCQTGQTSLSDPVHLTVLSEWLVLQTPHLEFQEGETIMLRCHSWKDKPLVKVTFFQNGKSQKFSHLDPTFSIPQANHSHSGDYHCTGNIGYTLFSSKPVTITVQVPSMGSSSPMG

T3: CD32B (human, UniProt P31994 43-217)
T3 construct: extracellular domain; Soluble dimeric fusion as told for the ch4D5 BIAcore assays of section 7.7; also called FcγRIIB; FcγRII-B; not shown: hinge-CH2-CH3 domain of human IgG2
T3 sequence (looked up): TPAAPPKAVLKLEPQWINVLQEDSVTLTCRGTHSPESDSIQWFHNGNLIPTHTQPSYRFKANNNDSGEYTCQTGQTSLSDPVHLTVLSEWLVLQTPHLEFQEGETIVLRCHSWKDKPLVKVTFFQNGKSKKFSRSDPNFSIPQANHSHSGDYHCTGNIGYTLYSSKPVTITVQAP

T4: CD32A (131H) (human, UniProt P12318 34-217)
T4 construct: extracellular domain; Soluble dimeric fusion as told for the ch4D5 BIAcore assays of section 7.7; also called FcγRIIA 131H; not shown: hinge-CH2-CH3 domain of human IgG2
T4 sequence (looked up): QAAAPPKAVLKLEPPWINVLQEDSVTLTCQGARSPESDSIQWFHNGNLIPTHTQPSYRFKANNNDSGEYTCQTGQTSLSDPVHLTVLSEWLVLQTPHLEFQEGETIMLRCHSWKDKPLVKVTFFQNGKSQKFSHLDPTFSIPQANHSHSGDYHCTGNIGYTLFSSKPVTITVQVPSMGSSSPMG

T5: CD32A (131R) (human, UniProt P12318 34-217)
T5 construct: extracellular domain; Soluble dimeric fusion as told for FcγRIIA in section 7.7 (there for 131H); also called FcγRIIA 131R; not shown: hinge-CH2-CH3 domain of human IgG2
T5 sequence (looked up): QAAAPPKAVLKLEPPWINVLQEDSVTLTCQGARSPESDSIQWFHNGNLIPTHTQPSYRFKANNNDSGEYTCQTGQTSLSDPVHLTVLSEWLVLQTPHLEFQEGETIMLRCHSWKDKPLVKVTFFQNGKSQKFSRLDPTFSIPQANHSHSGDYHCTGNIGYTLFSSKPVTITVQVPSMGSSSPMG


Legend:
CD16A(V158) = target: T6, CD16A(V158) (human, UniProt P08637 17-208); experiment: relative off-rate wt/variant; method not given (BIAcore elsewhere)
T6 construct: extracellular domain; Construct as told for the BIAcore assays of Section 7.7; also called FcγRIIIA 158V; 3aV158

CD16A(F158) = target: T7, CD16A(F158) (human, UniProt P08637 17-208); experiment: as above
T7 construct: extracellular domain; Construct as told for the BIAcore assays of Section 7.7; also called 3aF158

CD32B-G2Ag = target: T1, CD32B-G2Ag; experiment: as above
CD32A-G2Ag = target: T2, CD32A-G2Ag; experiment: as above
CD16A (158V) = target: T8, CD16A (158V) (human, UniProt P08637 17-208); experiment: off-rate ratio vs wild-type Fc (BIAcore per the filing's koff tables)
T8 construct: extracellular domain; Soluble monomeric construct as told for the ch4D5 BIAcore assays of section 7.7; also called FcγRIIIA 158V; FcγRIIIA V158

CD16A (158F) = target: T9, CD16A (158F) (human, UniProt P08637 17-208); experiment: as above
T9 construct: extracellular domain; Soluble monomeric construct as told for the ch4D5 BIAcore assays of section 7.7

CD32B = target: T3, CD32B; experiment: as above
CD32A (131H) = target: T4, CD32A (131H); experiment: as above
CD32A (131R) = target: T5, CD32A (131R); experiment: as above
[1] = target: T10, FcγRIIIA, soluble monomeric protein (extracellular region joined to the linker-AVITAG sequence) (human, UniProt P08637 17-208); experiment: ELISA
T10 construct: extracellular domain; also called FcRIIIA; FcR3A

[2] = target: T10, FcγRIIIA, soluble monomeric protein …; experiment: ELISA; remark: listed apart in the source

T9 sequence (P08637 17-208): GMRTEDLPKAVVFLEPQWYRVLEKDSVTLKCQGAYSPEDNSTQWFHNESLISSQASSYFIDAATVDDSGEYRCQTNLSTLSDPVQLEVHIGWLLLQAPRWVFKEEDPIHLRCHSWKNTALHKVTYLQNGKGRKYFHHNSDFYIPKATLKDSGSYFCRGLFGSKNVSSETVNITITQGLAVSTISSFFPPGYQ
T8 sequence (P08637 17-208 F176V): as the sequence (P08637 17-208) above, with F160V counted along it
T6 sequence (P08637 17-208 F176V): as the sequence (P08637 17-208) above, with F160V counted along it
T10 sequence (P08637 17-208 F176V limits assumed, form in doubt): as the sequence (P08637 17-208) above, with F160V counted along it
T7 sequence (P08637 17-208): as the sequence (P08637 17-208) above

Koff ratio (wt/mut) (CD16A(V158))	Koff ratio (wt/mut) (CD16A(F158))	Koff ratio (wt/mut) (CD32B-G2Ag)	Koff ratio (wt/mut) (CD32A-G2Ag)	Wild-Type Koff/Mutant Koff (CD16A (158V))	Wild-Type Koff/Mutant Koff (CD16A (158F))	Wild-Type Koff/Mutant Koff (CD32B)	Wild-Type Koff/Mutant Koff (CD32A (131H))	Wild-Type Koff/Mutant Koff (CD32A (131R))	ELISA binding, fold vs WT [1]	fold change vs WT [2]	Binder
10.1 wt/mut	8.3 wt/mut	3.2 wt/mut	1.4 wt/mut								Antibody 2B6 3.5 Fc Variant 49 (F243L, R292P, Y300L, V305I, P396L) (antibody, Fc variant of m46; also called h2B6 3.5 0088; copies: 2 + 2) heavy: QVQLVQSGAEVKKPGASVKVSCKASGYTFTNYWIHWVRQAPGQGLEWIGVIDPSDTYPNYNKKFKGRVTMTVDTSTSTAYMELRSLRSDDTAVYYCARNGDSDYYSGMDYWGQGTTVTVSSASTKGPSVFPLAPSSKSTSGGTAALGCLVKDYFPEPVTVSWNSGALTSGVHTFPAVLQSSGLYSLSSVVTVPSSSLGTQTYICNVNHKPSNTKVDKRVEPKSCDKTHTCPPCPAPELLGGPSVFLLPPKPKDTLMISRTPEVTCVVVDVSHEDPEVKFNWYVDGVEVHNAKTKPPEEQYNSTLRVVSILTVLHQDWLNGKEYKCKVSNKALPAPIEKTISKAKGQPREPQVYTLPPSRDELTKNQVSLTCLVKGFYPSDIAVEWESNGQPENNYKTTPLVLDSDGSFFLYSKLTVDKSRWQQGNVFSCSVMHEALHNHYTQKSLSLSPGK light: EIVLTQSPDFQSVTPKEKVTFTCRTSQSIGTNIHWYQQKPDQSPKLLIKEVSESISGVPSRFSGSGSGTDFTLTINSLEAEDAATYYCQQSNTWPFTFGGGTKVEIKRTVAAPSVFIFPPSDEQLKSGTASVVCLLNNFYPREAKVQWKVDNALQSGNSQESVTEQDSKDSTYSLSSTLTLSKADYEKHKVYACEVTHQGLSSPVTKSFNRGEC
				6.1	4.8	0.4	1.3	0.4			ch4D5-FcMT2 (antibody, human IgG1, kappa, Anti-Her2/neu; also called ch45D4-FcMT2; L235V F243L R292P Y300L P396L) heavy: QVQLQQSGPELVKPGASLKLSCTASGFNIKDTYIHWVKQRPEQGLEWIGRIYPTNGYTRYDPKFQDKATITADTSSNTAYLQVSRLTSEDTAVYYCSRWGGDGFYAMDYWGQGASVTVSSASTKGPSVFPLAPSSKSTSGGTAALGCLVKDYFPEPVTVSWNSGALTSGVHTFPAVLQSSGLYSLSSVVTVPSSSLGTQTYICNVNHKPSNTKVDKRVEPKSCDKTHTCPPCPAPELVGGPSVFLLPPKPKDTLMISRTPEVTCVVVDVSHEDPEVKFNWYVDGVEVHNAKTKPPEEQYNSTLRVVSVLTVLHQDWLNGKEYKCKVSNKALPAPIEKTISKAKGQPREPQVYTLPPSRDELTKNQVSLTCLVKGFYPSDIAVEWESNGQPENNYKTTPLVLDSDGSFFLYSKLTVDKSRWQQGNVFSCSVMHEALHNHYTQKSLSLSPGK light: DIVMTQSHKFMSTSVGDRVSITCKASQDVNTAVAWYQQKPGHSPKLLIYSASFRYTGVPDRFTGSRSGTDFTFTISSVQAEDLAVYYCQQHYTTPPTFGGGTKVEIKRTVAAPSVFIFPPSDEQLKSGTASVVCLLNNFYPREAKVQWKVDNALQSGNSQESVTEQDSKDSTYSLSSTLTLSKADYEKHKVYACEVTHQGLSSPVTKSFNRGEC
5.3 wt/mut	4.5 wt/mut	0.5 wt/mut	1.3 wt/mut								ch4D5 Fc Variants 19 and 20 (L235V, F243L, R292P, Y300L, P396L) (antibody, copies: 2 + 2) heavy: QVQLQQSGPELVKPGASLKLSCTASGFNIKDTYIHWVKQRPEQGLEWIGRIYPTNGYTRYDPKFQDKATITADTSSNTAYLQVSRLTSEDTAVYYCSRWGGDGFYAMDYWGQGASVTVSSASTKGPSVFPLAPSSKSTSGGTAALGCLVKDYFPEPVTVSWNSGALTSGVHTFPAVLQSSGLYSLSSVVTVPSSSLGTQTYICNVNHKPSNTKVDKRVEPKSCDKTHTCPPCPAPELVGGPSVFLLPPKPKDTLMISRTPEVTCVVVDVSHEDPEVKFNWYVDGVEVHNAKTKPPEEQYNSTLRVVSVLTVLHQDWLNGKEYKCKVSNKALPAPIEKTISKAKGQPREPQVYTLPPSRDELTKNQVSLTCLVKGFYPSDIAVEWESNGQPENNYKTTPLVLDSDGSFFLYSKLTVDKSRWQQGNVFSCSVMHEALHNHYTQKSLSLSPGK light: DIVMTQSHKFMSTSVGDRVSITCKASQDVNTAVAWYQQKPGHSPKLLIYSASFRYTGVPDRFTGSRSGTDFTFTISSVQAEDLAVYYCQQHYTTPPTFGGGTKVEIKRTVAAPSVFIFPPSDEQLKSGTASVVCLLNNFYPREAKVQWKVDNALQSGNSQESVTEQDSKDSTYSLSSTLTLSKADYEKHKVYACEVTHQGLSSPVTKSFNRGEC
					2.5	0.2	0.7	0.2			ch4D5 Fc variant L235P, F243L, R292P, Y300L, P396L (antibody, One of the series of variants of ch4D5-FcMT2) heavy: QVQLQQSGPELVKPGASLKLSCTASGFNIKDTYIHWVKQRPEQGLEWIGRIYPTNGYTRYDPKFQDKATITADTSSNTAYLQVSRLTSEDTAVYYCSRWGGDGFYAMDYWGQGASVTVSSASTKGPSVFPLAPSSKSTSGGTAALGCLVKDYFPEPVTVSWNSGALTSGVHTFPAVLQSSGLYSLSSVVTVPSSSLGTQTYICNVNHKPSNTKVDKRVEPKSCDKTHTCPPCPAPELPGGPSVFLLPPKPKDTLMISRTPEVTCVVVDVSHEDPEVKFNWYVDGVEVHNAKTKPPEEQYNSTLRVVSVLTVLHQDWLNGKEYKCKVSNKALPAPIEKTISKAKGQPREPQVYTLPPSRDELTKNQVSLTCLVKGFYPSDIAVEWESNGQPENNYKTTPLVLDSDGSFFLYSKLTVDKSRWQQGNVFSCSVMHEALHNHYTQKSLSLSPGK light: DIVMTQSHKFMSTSVGDRVSITCKASQDVNTAVAWYQQKPGHSPKLLIYSASFRYTGVPDRFTGSRSGTDFTFTISSVQAEDLAVYYCQQHYTTPPTFGGGTKVEIKRTVAAPSVFIFPPSDEQLKSGTASVVCLLNNFYPREAKVQWKVDNALQSGNSQESVTEQDSKDSTYSLSSTLTLSKADYEKHKVYACEVTHQGLSSPVTKSFNRGEC
				4.2	2.8	0.3	0.9	0.3			ch4D5 Fc variant L235T, F243L, R292P, Y300L, P396L (antibody, One of the series of variants of ch4D5-FcMT2) heavy: QVQLQQSGPELVKPGASLKLSCTASGFNIKDTYIHWVKQRPEQGLEWIGRIYPTNGYTRYDPKFQDKATITADTSSNTAYLQVSRLTSEDTAVYYCSRWGGDGFYAMDYWGQGASVTVSSASTKGPSVFPLAPSSKSTSGGTAALGCLVKDYFPEPVTVSWNSGALTSGVHTFPAVLQSSGLYSLSSVVTVPSSSLGTQTYICNVNHKPSNTKVDKRVEPKSCDKTHTCPPCPAPELTGGPSVFLLPPKPKDTLMISRTPEVTCVVVDVSHEDPEVKFNWYVDGVEVHNAKTKPPEEQYNSTLRVVSVLTVLHQDWLNGKEYKCKVSNKALPAPIEKTISKAKGQPREPQVYTLPPSRDELTKNQVSLTCLVKGFYPSDIAVEWESNGQPENNYKTTPLVLDSDGSFFLYSKLTVDKSRWQQGNVFSCSVMHEALHNHYTQKSLSLSPGK light: DIVMTQSHKFMSTSVGDRVSITCKASQDVNTAVAWYQQKPGHSPKLLIYSASFRYTGVPDRFTGSRSGTDFTFTISSVQAEDLAVYYCQQHYTTPPTFGGGTKVEIKRTVAAPSVFIFPPSDEQLKSGTASVVCLLNNFYPREAKVQWKVDNALQSGNSQESVTEQDSKDSTYSLSSTLTLSKADYEKHKVYACEVTHQGLSSPVTKSFNRGEC
									1.5 fold	1.5 fold	Fc variant K334E, T359N, T366S (antibody) ASTKGPSVFPLAPSSKSTSGGTAALGCLVKDYFPEPVTVSWNSGALTSGVHTFPAVLQSSGLYSLSSVVTVPSSSLGTQTYICNVNHKPSNTKVDKKVEPKSCDKTHTCPPCPAPELLGGPSVFLFPPKPKDTLMISRTPEVTCVVVDVSHEDPEVKFNWYVDGVEVHNAKTKPREEQYNSTYRVVSVLTVLHQDWLNGKEYKCKVSNKALPAPIEETISKAKGQPREPQVYTLPPSRDELNKNQVSLSCLVKGFYPSDIAVEWESNGQPENNYKTTPPVLDSDGSFFLYSKLTVDKSRWQQGNVFSCSVMHEALHNHYTQKSLSLSPGK
